This passage reports Kd results from patent US20200317768A1 (published 2020).

In general, Kd refers to the free concentration of one partner at which half of the binding sites on the other are occupied at equilibrium, for simple one-to-one binding.

Holding throughout (assay): SPR, antibody captured, FcgR analyte
(In general: In SPR one partner is held on a chip, and binding of the other changes the refractive index at the surface.)

The target of experiment [1] is T1, human FcγRIIaR extracellular domain, His-tagged (human, UniProt P12318 34-217).
T1 construct: also called human FcγRIIa (type R); FcgRIIaR
T1 chain: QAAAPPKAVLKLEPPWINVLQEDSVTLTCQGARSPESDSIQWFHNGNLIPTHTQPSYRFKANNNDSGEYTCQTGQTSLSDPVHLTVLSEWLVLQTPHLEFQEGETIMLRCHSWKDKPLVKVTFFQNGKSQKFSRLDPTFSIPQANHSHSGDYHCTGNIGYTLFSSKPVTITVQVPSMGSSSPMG

Experiment [2] addresses T2, cynomolgus monkey FcγRIIa2 extracellular domain, His-tagged (cynomolgus monkey).
T2 construct: also called cyno FcγRIIa2; cynoFcgRIIa2
T2 chain: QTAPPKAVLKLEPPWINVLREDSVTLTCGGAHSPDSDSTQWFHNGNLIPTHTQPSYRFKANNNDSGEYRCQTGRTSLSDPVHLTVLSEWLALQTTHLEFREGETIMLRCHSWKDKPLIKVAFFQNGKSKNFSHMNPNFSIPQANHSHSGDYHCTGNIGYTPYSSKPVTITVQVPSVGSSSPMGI

For experiment [3], the target named is T3, human FcγRIIb extracellular domain, His-tagged (human, UniProt P31994 43-217).
T3 construct: also called FcgRIIb (human)
T3 sequence: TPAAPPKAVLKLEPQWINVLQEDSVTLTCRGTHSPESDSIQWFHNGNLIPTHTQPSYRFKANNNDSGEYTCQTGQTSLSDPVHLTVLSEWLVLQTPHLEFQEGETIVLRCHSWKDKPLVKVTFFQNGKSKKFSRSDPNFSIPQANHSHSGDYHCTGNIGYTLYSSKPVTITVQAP

Experiment [4] addresses T4, cynomolgus monkey FcγRIIb extracellular domain, His-tagged (cynomolgus monkey).
T4 construct: also called cyno FcγRIIb; cynoFcγRIIb
T4 chain: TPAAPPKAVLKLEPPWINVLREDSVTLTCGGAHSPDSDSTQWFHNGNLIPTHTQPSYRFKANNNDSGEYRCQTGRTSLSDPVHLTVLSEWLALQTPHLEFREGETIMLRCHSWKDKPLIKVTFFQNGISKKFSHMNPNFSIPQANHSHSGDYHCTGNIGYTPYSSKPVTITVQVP

The target in experiment [5] is T5, cynomolgus monkey FcγRIIa3 extracellular domain, His-tagged (cynomolgus monkey).
T5 construct: also called cyno FcγRIIa3; cynoFcgRIIa3
T5 chain: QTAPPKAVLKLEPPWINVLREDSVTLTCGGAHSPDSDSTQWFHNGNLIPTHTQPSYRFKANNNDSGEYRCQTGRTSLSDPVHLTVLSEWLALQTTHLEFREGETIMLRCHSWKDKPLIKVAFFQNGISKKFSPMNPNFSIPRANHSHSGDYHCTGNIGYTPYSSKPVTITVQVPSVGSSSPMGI

Experiment [6] has as its target T6, cynomolgus monkey FcγRIIIaS extracellular domain, His-tagged (cynomolgus monkey, UniProt Q8SPW2 21-206 at identity 1.00)).
T6 construct: also called cyno FcγRIIIaS; cynoFcγRIIIaS
T6 chain: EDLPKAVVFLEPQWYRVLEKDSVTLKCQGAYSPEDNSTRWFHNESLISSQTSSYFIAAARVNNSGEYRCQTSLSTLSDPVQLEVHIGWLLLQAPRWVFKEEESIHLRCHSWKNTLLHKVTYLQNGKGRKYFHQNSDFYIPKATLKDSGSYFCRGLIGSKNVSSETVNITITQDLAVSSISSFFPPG

The target of experiment [7] is T7, cynomolgus monkey FcγRIIa1 extracellular domain, His-tagged (cynomolgus monkey).
T7 construct: also called cyno FcγRIIa1; cynoFcgRIIa1
T7 chain: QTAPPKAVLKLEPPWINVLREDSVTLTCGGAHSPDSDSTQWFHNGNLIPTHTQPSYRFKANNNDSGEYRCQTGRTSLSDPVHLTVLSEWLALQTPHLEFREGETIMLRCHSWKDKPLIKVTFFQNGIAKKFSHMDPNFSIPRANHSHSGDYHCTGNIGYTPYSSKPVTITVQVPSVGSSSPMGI

Experiment [8] deals with T8, human FcγRIIaH extracellular domain, His-tagged (human, UniProt P12318 34-217).
T8 construct: also called human FcγRIIa (type H); FcgRIIaH
T8 sequence: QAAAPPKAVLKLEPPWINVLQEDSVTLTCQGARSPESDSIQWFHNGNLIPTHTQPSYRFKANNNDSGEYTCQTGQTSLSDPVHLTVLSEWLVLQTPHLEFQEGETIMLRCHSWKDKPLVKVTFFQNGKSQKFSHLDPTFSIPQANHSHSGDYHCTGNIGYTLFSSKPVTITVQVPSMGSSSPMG

B1: MS_M103205H795-SG1/M103202L889-SK1 (antibody, human IgG1, kappa)
heavy: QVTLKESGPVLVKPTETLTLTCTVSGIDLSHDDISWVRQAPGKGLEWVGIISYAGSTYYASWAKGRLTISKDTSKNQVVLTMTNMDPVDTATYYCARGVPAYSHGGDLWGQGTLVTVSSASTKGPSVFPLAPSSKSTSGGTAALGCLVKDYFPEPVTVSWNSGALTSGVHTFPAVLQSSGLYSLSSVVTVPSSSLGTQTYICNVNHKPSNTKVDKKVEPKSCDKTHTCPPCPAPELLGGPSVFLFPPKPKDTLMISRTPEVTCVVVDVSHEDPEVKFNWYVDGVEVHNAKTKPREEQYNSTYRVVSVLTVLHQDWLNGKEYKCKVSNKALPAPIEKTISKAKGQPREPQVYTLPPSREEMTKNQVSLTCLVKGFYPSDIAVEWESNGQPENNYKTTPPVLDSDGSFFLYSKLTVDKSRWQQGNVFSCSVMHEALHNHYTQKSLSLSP
light: DIVMTQSPATLSLSPGERATLSCTSSQSVYHANWLSWFQQKPGQPPKLLIYWASTLAYGVPSRFSGSGSGTDFTLTISSLQPEDAATYYCAGGYGGGRYAFGQGTKVEIKRTVAAPSVFIFPPSDEQLKSGTASVVCLLNNFYPREAKVQWKVDNALQSGNSQESVTEQDSKDSTYSLSSTLTLSKADYEKHKVYACEVTHQGLSSPVTKSFNRGEC
notes: Parent antibody of the Fc variants; heavy chain constant region SG1, light chain M103202L889-SK1; also called MS1032LO06-SG1
With B1, the dissociation constant (Kd) turned out to be 1100 nM in experiment [1]; 5100 nM in experiment [2]; 4600 nM in experiment [3]; 1800 nM in experiment [4]; 17000 nM in experiment [5]; 360 nM in experiment [6]. Besides, the Kd stood at 3200 nM in experiment [7] and 690 nM in experiment [8].

B2: M103205H795-MY010/M103202L889-SK1 (antibody, human IgG1, kappa)
heavy: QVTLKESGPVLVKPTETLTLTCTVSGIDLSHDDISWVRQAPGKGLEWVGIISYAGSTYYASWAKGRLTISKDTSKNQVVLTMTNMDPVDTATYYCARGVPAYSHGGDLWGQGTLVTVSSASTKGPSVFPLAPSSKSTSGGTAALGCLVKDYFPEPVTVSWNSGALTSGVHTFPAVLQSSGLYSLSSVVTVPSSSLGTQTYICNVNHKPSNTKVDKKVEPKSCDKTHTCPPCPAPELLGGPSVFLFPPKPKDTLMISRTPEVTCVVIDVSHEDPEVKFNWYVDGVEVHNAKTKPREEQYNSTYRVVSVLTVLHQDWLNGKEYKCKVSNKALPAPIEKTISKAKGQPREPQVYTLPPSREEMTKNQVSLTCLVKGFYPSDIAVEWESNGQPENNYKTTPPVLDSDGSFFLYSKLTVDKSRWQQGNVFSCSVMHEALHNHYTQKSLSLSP
light: DIVMTQSPATLSLSPGERATLSCTSSQSVYHANWLSWFQQKPGQPPKLLIYWASTLAYGVPSRFSGSGSGTDFTLTISSLQPEDAATYYCAGGYGGGRYAFGQGTKVEIKRTVAAPSVFIFPPSDEQLKSGTASVVCLLNNFYPREAKVQWKVDNALQSGNSQESVTEQDSKDSTYSLSSTLTLSKADYEKHKVYACEVTHQGLSSPVTKSFNRGEC
notes: Substitution put into M103205H795-SG1
Regarding B2, the Kd in experiment [1] came to 1800 nM; in experiment [2] it was 5000 nM; in experiment [3], 9100 nM; in experiment [4], 2000 nM; in experiment [5] it was 18000 nM; in experiment [6], 220 nM. In addition, the dissociation constant (Kd) in experiment [7] was determined as 3900 nM; in experiment [8], 1200 nM.

B3: M103205H795-MY038/M103202L889-SK1 (antibody, human IgG1, kappa)
heavy: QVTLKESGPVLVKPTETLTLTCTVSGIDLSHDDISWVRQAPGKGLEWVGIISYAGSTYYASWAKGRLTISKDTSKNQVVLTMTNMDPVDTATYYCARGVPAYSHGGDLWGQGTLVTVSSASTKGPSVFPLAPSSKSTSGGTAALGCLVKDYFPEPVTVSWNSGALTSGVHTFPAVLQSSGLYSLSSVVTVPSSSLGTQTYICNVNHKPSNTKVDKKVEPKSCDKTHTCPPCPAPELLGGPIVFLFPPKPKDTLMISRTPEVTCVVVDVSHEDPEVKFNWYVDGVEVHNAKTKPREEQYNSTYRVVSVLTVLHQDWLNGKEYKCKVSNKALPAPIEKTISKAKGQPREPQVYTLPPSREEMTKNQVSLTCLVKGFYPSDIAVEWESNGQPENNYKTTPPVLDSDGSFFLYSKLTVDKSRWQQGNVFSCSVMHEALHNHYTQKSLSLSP
light: DIVMTQSPATLSLSPGERATLSCTSSQSVYHANWLSWFQQKPGQPPKLLIYWASTLAYGVPSRFSGSGSGTDFTLTISSLQPEDAATYYCAGGYGGGRYAFGQGTKVEIKRTVAAPSVFIFPPSDEQLKSGTASVVCLLNNFYPREAKVQWKVDNALQSGNSQESVTEQDSKDSTYSLSSTLTLSKADYEKHKVYACEVTHQGLSSPVTKSFNRGEC
notes: as for B2
Turning to B3, the Kd in experiment [1] was 1500 nM; in experiment [2], 4500 nM; in experiment [3] it was 2600 nM; in experiment [4] it was 1900 nM; in experiment [5], 11000 nM; in experiment [6], 310 nM. Further, the Kd in experiment [7] is 3900 nM; in experiment [8] it was 1200 nM.

B4: M103205H795-MY014/M103202L889-SK1 (antibody, human IgG1, kappa)
heavy: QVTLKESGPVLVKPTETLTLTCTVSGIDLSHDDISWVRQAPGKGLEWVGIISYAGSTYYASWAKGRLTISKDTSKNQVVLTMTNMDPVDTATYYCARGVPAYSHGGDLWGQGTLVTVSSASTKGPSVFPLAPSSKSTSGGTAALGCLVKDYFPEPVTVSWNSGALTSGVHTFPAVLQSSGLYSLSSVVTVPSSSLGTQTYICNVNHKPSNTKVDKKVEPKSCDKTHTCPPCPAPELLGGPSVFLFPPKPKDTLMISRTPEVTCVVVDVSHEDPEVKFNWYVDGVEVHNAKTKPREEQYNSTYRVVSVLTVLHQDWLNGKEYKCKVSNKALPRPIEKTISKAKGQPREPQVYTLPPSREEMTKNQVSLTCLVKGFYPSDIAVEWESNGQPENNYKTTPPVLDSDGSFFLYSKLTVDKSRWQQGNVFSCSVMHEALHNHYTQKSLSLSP
light: DIVMTQSPATLSLSPGERATLSCTSSQSVYHANWLSWFQQKPGQPPKLLIYWASTLAYGVPSRFSGSGSGTDFTLTISSLQPEDAATYYCAGGYGGGRYAFGQGTKVEIKRTVAAPSVFIFPPSDEQLKSGTASVVCLLNNFYPREAKVQWKVDNALQSGNSQESVTEQDSKDSTYSLSSTLTLSKADYEKHKVYACEVTHQGLSSPVTKSFNRGEC
notes: as for B2
For B4, the dissociation constant Kd in experiment [1] turned out to be 960 nM; in experiment [2] it was 2500 nM; in experiment [3], 4800 nM; in experiment [4], 1500 nM; in experiment [5] it was 12000 nM; in experiment [6] it was 400 nM. The Kd in experiment [7] was determined as 2500 nM; in experiment [8], 520 nM.

B5: M103205H795-MY016/M103202L889-SK1 (antibody, human IgG1, kappa)
heavy: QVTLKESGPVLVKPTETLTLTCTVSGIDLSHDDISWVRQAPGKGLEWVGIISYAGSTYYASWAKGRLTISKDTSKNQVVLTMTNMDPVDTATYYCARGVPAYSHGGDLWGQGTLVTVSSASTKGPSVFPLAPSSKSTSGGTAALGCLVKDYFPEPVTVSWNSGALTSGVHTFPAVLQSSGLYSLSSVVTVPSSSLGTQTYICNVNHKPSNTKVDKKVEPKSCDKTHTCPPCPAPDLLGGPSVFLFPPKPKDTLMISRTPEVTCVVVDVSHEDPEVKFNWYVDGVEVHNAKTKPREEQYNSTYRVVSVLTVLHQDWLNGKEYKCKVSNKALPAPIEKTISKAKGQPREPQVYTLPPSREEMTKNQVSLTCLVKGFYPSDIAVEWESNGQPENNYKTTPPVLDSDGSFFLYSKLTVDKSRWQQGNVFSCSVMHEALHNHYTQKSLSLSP
light: DIVMTQSPATLSLSPGERATLSCTSSQSVYHANWLSWFQQKPGQPPKLLIYWASTLAYGVPSRFSGSGSGTDFTLTISSLQPEDAATYYCAGGYGGGRYAFGQGTKVEIKRTVAAPSVFIFPPSDEQLKSGTASVVCLLNNFYPREAKVQWKVDNALQSGNSQESVTEQDSKDSTYSLSSTLTLSKADYEKHKVYACEVTHQGLSSPVTKSFNRGEC
notes: as for B2
As for B5, the dissociation constant (Kd) in experiment [1] came out at 940 nM; in experiment [2], 3400 nM; in experiment [3] it was 2900 nM; in experiment [4], 1700 nM; in experiment [5], 3200 nM; in experiment [6] it was 230 nM. Besides, the Kd was determined as 2900 nM in experiment [7] and 850 nM in experiment [8].

B6: M103205H795-MY037/M103202L889-SK1 (antibody, human IgG1, kappa)
heavy: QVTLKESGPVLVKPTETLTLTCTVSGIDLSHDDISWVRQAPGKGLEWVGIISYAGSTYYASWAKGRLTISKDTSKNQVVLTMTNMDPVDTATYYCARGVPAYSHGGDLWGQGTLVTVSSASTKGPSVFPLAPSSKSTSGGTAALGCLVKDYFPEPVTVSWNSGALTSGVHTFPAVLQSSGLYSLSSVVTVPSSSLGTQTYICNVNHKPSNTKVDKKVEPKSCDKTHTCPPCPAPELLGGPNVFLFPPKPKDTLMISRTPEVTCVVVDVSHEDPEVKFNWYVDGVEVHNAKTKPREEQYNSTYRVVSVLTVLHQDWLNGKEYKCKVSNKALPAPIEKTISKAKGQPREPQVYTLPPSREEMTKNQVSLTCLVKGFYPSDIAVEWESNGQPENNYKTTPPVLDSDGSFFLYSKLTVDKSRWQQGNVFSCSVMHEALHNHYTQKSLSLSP
light: DIVMTQSPATLSLSPGERATLSCTSSQSVYHANWLSWFQQKPGQPPKLLIYWASTLAYGVPSRFSGSGSGTDFTLTISSLQPEDAATYYCAGGYGGGRYAFGQGTKVEIKRTVAAPSVFIFPPSDEQLKSGTASVVCLLNNFYPREAKVQWKVDNALQSGNSQESVTEQDSKDSTYSLSSTLTLSKADYEKHKVYACEVTHQGLSSPVTKSFNRGEC
notes: as for B2
Turning to B6, the Kd was 910 nM in experiment [1]; 4500 nM in experiment [2]; 2600 nM in experiment [3]; 2400 nM in experiment [4]; 9600 nM in experiment [5]; 200 nM in experiment [6]. In addition, the Kd turned out to be 3800 nM in experiment [7] and 1100 nM in experiment [8].

B7: M103205H795-MY008/M103202L889-SK1 (antibody, human IgG1, kappa)
heavy: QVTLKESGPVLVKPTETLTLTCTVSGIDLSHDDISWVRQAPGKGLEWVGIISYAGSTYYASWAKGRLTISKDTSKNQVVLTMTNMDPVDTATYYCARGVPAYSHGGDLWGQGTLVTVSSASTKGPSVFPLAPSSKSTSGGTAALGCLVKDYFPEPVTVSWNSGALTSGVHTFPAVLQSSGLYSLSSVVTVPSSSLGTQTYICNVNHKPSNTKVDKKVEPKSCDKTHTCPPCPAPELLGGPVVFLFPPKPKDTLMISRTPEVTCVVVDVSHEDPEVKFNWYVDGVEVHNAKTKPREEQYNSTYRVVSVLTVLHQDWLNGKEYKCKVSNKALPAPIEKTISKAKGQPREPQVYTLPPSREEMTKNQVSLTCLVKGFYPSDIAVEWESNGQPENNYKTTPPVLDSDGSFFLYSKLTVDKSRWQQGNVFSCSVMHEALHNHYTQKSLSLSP
light: DIVMTQSPATLSLSPGERATLSCTSSQSVYHANWLSWFQQKPGQPPKLLIYWASTLAYGVPSRFSGSGSGTDFTLTISSLQPEDAATYYCAGGYGGGRYAFGQGTKVEIKRTVAAPSVFIFPPSDEQLKSGTASVVCLLNNFYPREAKVQWKVDNALQSGNSQESVTEQDSKDSTYSLSSTLTLSKADYEKHKVYACEVTHQGLSSPVTKSFNRGEC
notes: as for B2
Consider B7, for which the Kd in experiment [1] came out at 1800 nM; in experiment [2] it was 3700 nM; in experiment [3], 2600 nM; in experiment [4], 1700 nM; in experiment [5], 24000 nM; in experiment [6] it was 370 nM. In addition, the dissociation constant (Kd) turned out to be 4200 nM in experiment [7] and 1600 nM in experiment [8].

B8: M103205H795-MY006/M103202L889-SK1 (antibody, human IgG1, kappa)
heavy: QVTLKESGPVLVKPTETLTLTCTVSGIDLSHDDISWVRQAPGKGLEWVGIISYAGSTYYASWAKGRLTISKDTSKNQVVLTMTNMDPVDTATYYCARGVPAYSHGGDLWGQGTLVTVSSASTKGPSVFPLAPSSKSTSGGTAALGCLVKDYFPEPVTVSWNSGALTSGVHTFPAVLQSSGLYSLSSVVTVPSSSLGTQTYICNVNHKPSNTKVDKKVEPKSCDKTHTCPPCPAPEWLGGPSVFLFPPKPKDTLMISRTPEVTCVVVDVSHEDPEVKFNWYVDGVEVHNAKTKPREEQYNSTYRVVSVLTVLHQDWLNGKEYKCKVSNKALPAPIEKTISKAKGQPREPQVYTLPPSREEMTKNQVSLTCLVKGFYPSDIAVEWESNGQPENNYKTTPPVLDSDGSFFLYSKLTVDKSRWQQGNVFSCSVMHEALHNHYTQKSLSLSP
light: DIVMTQSPATLSLSPGERATLSCTSSQSVYHANWLSWFQQKPGQPPKLLIYWASTLAYGVPSRFSGSGSGTDFTLTISSLQPEDAATYYCAGGYGGGRYAFGQGTKVEIKRTVAAPSVFIFPPSDEQLKSGTASVVCLLNNFYPREAKVQWKVDNALQSGNSQESVTEQDSKDSTYSLSSTLTLSKADYEKHKVYACEVTHQGLSSPVTKSFNRGEC
notes: as for B2
As for B8, the dissociation constant (Kd) in experiment [1] turned out to be 1800 nM; in experiment [2], 1500 nM; in experiment [3], 2300 nM; in experiment [4] it was 920 nM; in experiment [5] it was 3600 nM; in experiment [6], 320 nM. Besides, the Kd in experiment [7] worked out at 2000 nM; in experiment [8], 1300 nM.

B9: M103205H795-MY013/M103202L889-SK1 (antibody, human IgG1, kappa)
heavy: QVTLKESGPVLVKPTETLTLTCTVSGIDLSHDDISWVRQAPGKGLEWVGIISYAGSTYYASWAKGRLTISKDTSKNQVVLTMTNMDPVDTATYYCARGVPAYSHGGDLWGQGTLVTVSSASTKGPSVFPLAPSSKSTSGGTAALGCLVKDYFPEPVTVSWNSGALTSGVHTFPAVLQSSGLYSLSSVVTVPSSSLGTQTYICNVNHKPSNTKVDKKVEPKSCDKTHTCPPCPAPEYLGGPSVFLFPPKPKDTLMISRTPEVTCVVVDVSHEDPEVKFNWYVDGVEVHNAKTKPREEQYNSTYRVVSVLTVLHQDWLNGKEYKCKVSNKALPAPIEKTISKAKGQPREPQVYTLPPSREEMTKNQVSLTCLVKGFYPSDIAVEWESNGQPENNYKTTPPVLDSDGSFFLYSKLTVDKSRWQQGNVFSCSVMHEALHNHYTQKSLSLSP
light: DIVMTQSPATLSLSPGERATLSCTSSQSVYHANWLSWFQQKPGQPPKLLIYWASTLAYGVPSRFSGSGSGTDFTLTISSLQPEDAATYYCAGGYGGGRYAFGQGTKVEIKRTVAAPSVFIFPPSDEQLKSGTASVVCLLNNFYPREAKVQWKVDNALQSGNSQESVTEQDSKDSTYSLSSTLTLSKADYEKHKVYACEVTHQGLSSPVTKSFNRGEC
notes: as for B2
As to B9, the Kd came to 5100 nM in experiment [1]; 4700 nM in experiment [2]; 3700 nM in experiment [3]; 2000 nM in experiment [4]; 52000 nM in experiment [5]; 330 nM in experiment [6]. For the same molecule, the Kd in experiment [7] came to 4500 nM; in experiment [8] it was 2600 nM.
